This note sets out measurements from publication PMC8153946, “Substrate Selectivity of Coumarin Derivatives by Human CYP1 Enzymes: In Vitro Enzyme Kinetics and In Silico Modeling” (ACS Omega, 2021).

For one series, the target named is T1, human CYP1A1 (Homo sapiens, UniProt P04798).
T1 construct: purchased BD Biosciences Discovery Labware (Woburn, MA, USA); host or cells: baculovirus-insect cells
T1 sequence (P04798 1-512): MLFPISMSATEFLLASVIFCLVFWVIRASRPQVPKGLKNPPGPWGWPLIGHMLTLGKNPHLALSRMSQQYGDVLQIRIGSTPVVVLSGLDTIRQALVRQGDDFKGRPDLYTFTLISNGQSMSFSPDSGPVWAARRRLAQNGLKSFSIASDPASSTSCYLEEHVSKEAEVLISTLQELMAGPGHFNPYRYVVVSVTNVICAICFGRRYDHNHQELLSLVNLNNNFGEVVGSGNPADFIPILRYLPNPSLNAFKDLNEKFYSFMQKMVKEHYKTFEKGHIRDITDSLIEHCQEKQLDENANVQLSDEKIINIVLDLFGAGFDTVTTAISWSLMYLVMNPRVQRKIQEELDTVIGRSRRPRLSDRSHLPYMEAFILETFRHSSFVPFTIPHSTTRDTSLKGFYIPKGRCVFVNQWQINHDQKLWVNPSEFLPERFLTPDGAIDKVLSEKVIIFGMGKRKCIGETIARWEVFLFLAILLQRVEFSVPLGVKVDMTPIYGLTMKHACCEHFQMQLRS
Description: Michaelis–Menten kinetics of oxidation to fluorescent 7-hydroxy metabolite by recombinant CYP1A1. The settings on record: recombinant CYP1A1, surrogate standard; 95% confidence interval in brackets. The series is classed as biochemical. The method, then:
(§1) Baculovirus-insect cell-expressed human CYP1A1, CYP1A2, CYP1B1, CYP2A6, CYP2B6, CYP2C8, CYP2C9, CYP2C19, CYP2D6, CYP2E1, CYP3A4, CYP3A5, and CYP3A7 were purchased from BD Biosciences Discovery Labware (Woburn, MA, USA) and used according to the manufacturer’s instructions.
(§2) The kinetic assays were carried out in 100 μL volume containing 100 mM Tris-HCl buffer pH 7.4, 0–40 μM coumarin derivative or 0–10 μM 7-ethoxyresorufin, 1–25 nM recombinant CYP or 0–0.1 g/L microsomal protein, and 20% NADPH regenerating system. Incubations took place at 37 °C in 96-multiwell plates; the fluorescence was measured with a Victor[2] plate reader (PerkinElmer Life Sciences, Turku, Finland). The detailed conditions are described in the figures and tables. The reaction was started by adding NADPH, and fluorescence was measured at 2 min intervals for 40 min using excitation at 405 nm and emission at 460 nm for oxidation of coumarin derivatives[18] and excitation at 570 nm and emission at 615 nm for ethoxyresorufin or pentoxyresorufin 7-O-dealkylations. Incubations without the substrate, enzyme, or NADPH were used as blank reactions. Resorufin was used as a standard, and 3-(4-fluorophenyl)-7-hydroxycoumarin was used as the surrogate standards to calculate the amount of product formed. The linear phase of the reactions was used for calculations.
(§3) Enzyme kinetic parameters were analyzed using the nonlinear Michaelis–Menten equation v = Vmax × S/(Km + S), in which v is the rate for 7-hydroxylation of a coumarin derivative, S is its concentration, and Vmax value is the limiting rate of the reaction of 7-hydroxylation, which reached a half-maximal rate at a concentration of Km for the substrate.

A further series has as its target T2, CYP1A2 (Homo sapiens, UniProt P05177).
T2 construct: purchased BD Biosciences Discovery Labware (Woburn, MA, USA); host or cells: baculovirus-insect cells
T2 sequence (P05177 1-516): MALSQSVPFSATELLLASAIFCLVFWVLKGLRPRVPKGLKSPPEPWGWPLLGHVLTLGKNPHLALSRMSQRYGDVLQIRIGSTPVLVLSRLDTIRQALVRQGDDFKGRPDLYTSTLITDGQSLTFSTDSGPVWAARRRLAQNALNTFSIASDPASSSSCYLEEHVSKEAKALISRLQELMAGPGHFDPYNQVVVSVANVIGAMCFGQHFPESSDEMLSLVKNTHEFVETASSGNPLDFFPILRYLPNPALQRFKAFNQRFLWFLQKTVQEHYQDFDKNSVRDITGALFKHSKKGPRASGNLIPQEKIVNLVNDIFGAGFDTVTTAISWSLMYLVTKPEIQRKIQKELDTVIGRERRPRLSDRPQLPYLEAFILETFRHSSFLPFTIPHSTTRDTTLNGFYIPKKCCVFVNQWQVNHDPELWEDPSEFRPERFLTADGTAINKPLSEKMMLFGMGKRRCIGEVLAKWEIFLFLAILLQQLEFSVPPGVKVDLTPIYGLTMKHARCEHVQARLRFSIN
Description: Michaelis–Menten kinetics of oxidation to fluorescent 7-hydroxy metabolite by recombinant CYP1A2. The format is biochemical. Conditions: recombinant CYP1A2, surrogate standard; 95% confidence interval in brackets. The protocol: as §1, §2, §3

In series [1] the test system is human CYP1 enzymes (CYP1A1, CYP1A2, CYP1B1). Description: Oxidation efficiency compared across all CYP1 forms (Table 1). The series is classed as biochemical. Conditions: based on Table 1. The method, then: as §1, §2, §3
For series [2], the system named is 13 recombinant human CYP enzymes. Description: Oxidation rates by 13 recombinant human CYP enzymes at fixed substrate concentration (Figure 2). The series is classed as biochemical. The settings on record: 25 nM CYP. The method, then: as §1, §2
To find out which CYP forms oxidize the 11 novel coumarin derivatives, we determined their oxidation rates to the corresponding 7-hydroxycoumarin metabolites by 13 recombinant human CYP enzymes at a fixed 10 μM substrate concentration (Figure 2). All except 21, 22, and 23 were oxidized faster by one or several CYP1 forms than by the other CYP forms. […] Oxidation rates of the classical CYP substrates 7-ethoxycoumarin, 7-ethoxyresorufin, and 7-pentoxyresorufin were also determined. […] Oxidation of 7-ethoxycoumarin and 7-ethoxyresorufin was 35 and 60 times faster, respectively, than oxidation of 7-pentoxyresorufin. 7-Ethoxyresorufin was oxidized by CYP1A2 and CYP1B1 at 30–40% of the rate of CYP1A1.
Figure 2 Oxidation of the coumarin derivatives and 7-ethoxy- and 7-pentoxyresorufin by 13 human CYP forms. The formation of fluorescent metabolites was determined in incubations containing a 25 nM CYP, a 20% NADPH regenerating system, and a 10 μM coumarin derivative or 1 μM 7-ethoxy/7-pentoxyresorufin in 100 mM Tris-HCl pH 7.4 in the kinetic experimental setup. […] Note the variation in Y-axis scales between subpanels.

Substrate in series [3]: CC(=O)Oc1cccc(-c2cc3cc(Cl)ccc3oc2=O)c1
Description: Michaelis–Menten kinetics of oxidation to fluorescent 7-hydroxy metabolite by recombinant CYP1B1. Conditions: other: recombinant CYP1B1, 100 mM Tris-HCl pH 7.4, 37 °C, 95% confidence interval in brackets. The format is biochemical, human. The protocol:
as §1, §2, §3

Substrate in series [4]: CCOc1ccc2nc3ccc(=O)cc-3oc2c1
The description is as above. The format is biochemical, human. The settings on record: other: recombinant CYP1B1, 100 mM Tris-HCl pH 7.4, 37 °C, 95% confidence interval in brackets. The protocol: as §1, §2, §3

Substrate in series [5]: CC(=O)Oc1ccc(-c2cc3cc(Cl)ccc3oc2=O)cc1
The series is described as above. The series is classed as biochemical, human. The settings on record: other: recombinant CYP1B1, 100 mM Tris-HCl pH 7.4, 37 °C, 95% confidence interval in brackets. The protocol:
as §1, §2, §3

Substrate in series [6]: COc1cccc(-c2cc3cc(OC)ccc3oc2=O)c1
Described as above. The format is biochemical, human. The settings on record: other: recombinant CYP1B1, 100 mM Tris-HCl pH 7.4, 37 °C, 95% confidence interval in brackets. The method, then:
as §1, §2, §3

Substrate in series [7]: O=c1oc2ccc(O)cc2cc1-c1cccc(O)c1
The description is as above. The settings on record: other: recombinant CYP1B1, 100 mM Tris-HCl pH 7.4, 37 °C, 95% confidence interval in brackets. The format is biochemical, human. The method, then: as §1, §2, §3

Substrate in series [8]: CCCCCOc1ccc2nc3ccc(=O)cc-3oc2c1
The description is as above. The format is biochemical, human. The settings on record: other: recombinant CYP1B1, 100 mM Tris-HCl pH 7.4, 37 °C, 95% confidence interval in brackets. The protocol: as §1, §2, §3

Substrate in series [9]: CCOc1ccc2ccc(=O)oc2c1
Described as above. The format is biochemical, human. The settings on record: other: recombinant CYP1B1, 100 mM Tris-HCl pH 7.4, 37 °C, 95% confidence interval in brackets. The method, then: as §1, §2, §3

`CCCCCOc1ccc2nc3ccc(=O)cc-3oc2c1` [Compound 26, 7-pentoxyresorufin, reference compound]: the results for the Vmax at human CYP1A1 and on CYP1A2 were 1.35 mol/(min·mol CYP) and 0.25 mol/(min·mol CYP), respectively. For the same molecule, the “substrate efficiency compared among CYP1 enzymes” value in series [1] was “efficient substrates for CYP1A1 compared with CYP1A2 and CYP1B1”. Besides, the “CYP1 form oxidizing the substrate fastest” value in series [2] (10 μM coumarin derivative or 1 μM 7-ethoxy/7-pentoxyresorufin) is listed as “oxidized faster by CYP1A1 than the other CYP1 enzymes”. In addition, the “fluorescence change and rate of the oxidation” value in series [2] (fixed substrate concentration) is on record as “lowest”.

B1: human CYP1B1 (Homo sapiens) (protein)
chain: MGTSLSPNDPWPLNPLSIQQTTLLLLLSVLATVHVGQRLLRQRRRQLRSAPPGPFAWPLIGNAAAVGQAAHLSFARLARRYGDVFQIRLGSCPIVVLNGERAIHQALVQQGSAFADRPAFASFRVVSGGRSMAFGHYSEHWKVQRRAAHSMMRNFFTRQPRSRQVLEGHVLSEARELVALLVRGSADGAFLDPRPLTVVAVANVMSAVCFGCRYSHDDPEFRELLSHNEEFGRTVGAGSLVDVMPWLQYFPNPVRTVFREFEQLNRNFSNFILDKFLRHCESLRPGAAPRDMMDAFILSAEKKAAGDSHGGGARLDLENVPATITDIFGASQDTLSTALQWLLLLFTRYPDVQTRVQAELDQVVGRDRLPCMGDQPNLPYVLAFLYEAMRFSSFVPVTIPHATTANTSVLGYHIPKDTVVFVNQWSVNHDPLKWPNPENFDPARFLDKDGLINKDLTSRVMIFSVGKRRCIGEELSKMQLFLFISILAHQCDFRANPNEPAKMNFSYGLTIKPKSFKVNVTLRESMELLDSAVQNLQAKETCQ
notes: purchased BD Biosciences Discovery Labware (Woburn, MA, USA); host or cells: baculovirus-insect cells
For B1, the Km in series [3] is 1.1 (0.5–1.7) μM; in [4], 0.096 (0.072–0.119) μM; in series [5], 0.095 (0.04–0.15) μM; in series [6], 0.43 (0.24–0.61) μM; in series [7], 0.53 (0–1.1) μM; in [8], 2.59 (1.65–3.53) μM. Moreover, in [9], the Km was 120 (0–282) μM. The kcat in series [3] is given as 1.1 (0.96–1.2) mol/(min·mol CYP); in [4], 3.3 (3.0–3.6) mol/(min·mol CYP); in series [5], 5.1 (4.7–5.5) mol/(min·mol CYP); in series [6], 9.3 (8.2–10.4) mol/(min·mol CYP); in [7], 0.29 (0.25–0.34) mol/(min·mol CYP); in [8] it was 0.37 (0.28–0.46) mol/(min·mol CYP). For the same molecule, in series [9], the kcat is 1.75 (0–3.54) mol/(min·mol CYP).
